Literature values in article PMC10875074.

Biological target: CD155 (poliovirus receptor, Necl-5) (Homo sapiens) (UniProt P15151)
UniProt P15151, sequence (P15151 21-343): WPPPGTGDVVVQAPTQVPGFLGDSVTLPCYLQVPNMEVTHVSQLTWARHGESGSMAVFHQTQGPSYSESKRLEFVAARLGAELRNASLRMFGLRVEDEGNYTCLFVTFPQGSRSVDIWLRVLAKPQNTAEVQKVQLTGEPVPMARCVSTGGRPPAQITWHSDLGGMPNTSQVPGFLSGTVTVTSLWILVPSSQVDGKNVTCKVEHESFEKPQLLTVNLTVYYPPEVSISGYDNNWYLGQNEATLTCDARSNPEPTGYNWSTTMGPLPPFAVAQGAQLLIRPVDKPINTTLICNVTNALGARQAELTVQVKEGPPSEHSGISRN

## TIGIT (from UniProt Q495A1)
  Kd: 2 nM
